# Reference: patent publication US20260055143A1 (published 2026)
# Read-outs that look alike come from different tables or passages of the source. Where no end group is shown, it is not given here. [ ]: non-standard residue; d: D form. The star is where a group is joined. Biotin = O=C1N[C@H]2[C@H](CS[C@H]2CCCCC(=O)*)N1; pY = N[C@@H](Cc1ccc(OP(=O)(O)O)cc1)C(=O)O; Ahx = NCCCCCC(=O)O
# T1: Phosphopeptide KQVE{pTyr}LDLDLD
# T1 peptide: {Biotin-Ahx-Ahx}-KQVE[pY]LDLDLD
# T2: pTyr-containing peptide (pEZ) derived from Ezrin, PPV{pTyr}EPVS (also: N-terminal fluorescein (FP) or biotin via two aminocaproic acids (ELISA))
# T2 peptide: PPV[pY]EPVS
# T3: pMT peptide EEPQ{pTyr}EEIPIY
# T3 peptide: {Biotin-Ahx-Ahx}-EEPQ[pY]EEIPIY
# T4: Phosphopeptide PPPT{pTyr}TEVDP
# T4 peptide: {Biotin-Ahx-Ahx}-PPPT[pY]TEVDP
# T5: Phosphopeptide QGVI{pTyr}SDLNLP
# T5 peptide: {Biotin-Ahx-Ahx}-QGVI[pY]SDLNLP
# B1: Ptn11_N^G-αA2-R sSrc (protein)
# chain: MKIEEHHHHHHSSGKLGLNDIFEAQKIEWHESSGEDLYFQSGTTMDDYKDDDDKGGSGSMTSRRWFHPNITRVEAENLLLTRGVDGSFLARPSETVKGAFALSVRRNGAVTHILIQNTGDYYDLYGGEKFATLAELVQYYMEHHGQLKEKNGDVIELKYPLNCADSR
# B2: sFes^1 (SuperFes), superbinder Fes SH2 domain variant (designed binder)
# chain: MKIEEHHHHHHSSGKLGLNDIFEAQKIEWHESSGEDLYFQSGTTMDDYKDDDDKGGSEVQKPLHEQLWYHGAIPRAEVAELLVHSGDFLVREGQSQPDYVLSVLWDGLPRHFIIQSLDNLYRLEGEGFPSIPLLIDHLLSTQQPLTKKSGVVLHRAVPSR
# B3: Ptn11_N^G-αA2-R sFes (protein)
# chain: MKIEEHHHHHHSSGKLGLNDIFEAQKIEWHESSGEDLYFQSGTTMDDYKDDDDKGGSGSMTSRRWFHPNITRVEAENLLLTRGVDGSFLARPGQSQPDFVLSVRRNGAVTHIIIQNTGDYYDLYGGEKFATLAELVQYYMEHHGQLKEKNGDVIELKYPLNCADSR
# B4: Src^sFes, Src SH2 domain with the sFes superbinder motif grafted (designed binder)
# chain: MKIEEHHHHHHSSGKLGLNDIFEAQKIEWHESSGEDLYFQSGTTMDDYKDDDDKGGSDGIQAEEWYFGKITRRESERLLLNAENPRGTFLVREGQSQPDYVLSVSDFDNAKGLNVKHYIIRKLDSGGFYITSRTQFNSLQQLVAYYSKHADGLCHRLTTVCPSR
# B5: Ptn11_C^G-αA2-R sSrc (protein)
# chain: MKIEEHHHHHHSSGKLGLNDIFEAQKIEWHESSGEDLYFQSGTTMDDYKDDDDKGSLNCADPTSERWFHGHLSRKEAEKLLTEKGKHGSFLVRESETVKGAFALSVRTGDDKGESNDGKSKVTHVLIRCQELKYDVGGGERFDSLTDLVEHYKKNPMVETLGTVLQLKQPLNTTRINAADSR
# B6: Fes SH2 domain, wild type (Fes^wt) (other)
# chain: WYHGAIPRAEVAELLVHSGDFLVRESQGKQEYVLSVLWDGLPRHFIIQSLDNLYRLEGEGFPSIPLLIDHLLSTQQPLTKKSGVVLHRAV
# B7: Ptn6_C^G-αA2-R sFes (protein)
# chain: MKIEEHHHHHHSSGKLGLNDIFEAQKIEWHESSGEDLYFQSGTTMDDYKDDDDKGSLNCSDPTSERWYHGHMSRGQAETLLQAKGEPWTFLVREGQSQPDFVLSVLSDQPKAGPGSPLRVTHIIVMCEGGRYTVGGLETFDSLTDLVEHFKKTGIEEASGAFVYLRQPYYATRVNAADSR
# B8: Fes^sSrc, Fes SH2 domain with the sSrc superbinder motif grafted (designed binder)
# chain: MKIEEHHHHHHSSGKLGLNDIFEAQKIEWHESSGEDLYFQSGTTMDDYKDDDDKGGSEVQKPLHEQLWYHGAIPRAEVAELLVHSGDFLVRESETVKGAYALSVLWDGLPRHFLIQSLDNLYRLEGEGFPSIPLLIDHLLSTQQPLTKKSGVVLHRAVPSR
# Experiments:
# [1] = target: T1, Phosphopeptide KQVE{pTyr}LDLDLD; test: competition binding
# [2] = target: T2, pTyr-containing peptide (pEZ) derived …; test: competition binding
# [3] = target: T2, pTyr-containing peptide (pEZ) derived …; test: competition binding
# [4] = target: T3, pMT peptide EEPQ{pTyr}EEIPIY; test: competition binding
# [5] = target: T3, pMT peptide EEPQ{pTyr}EEIPIY; test: competition binding
# [6] = target: T4, Phosphopeptide PPPT{pTyr}TEVDP; test: competition
# [7] = target: T5, Phosphopeptide QGVI{pTyr}SDLNLP; test: competition binding
Binder,IC50 [2] [nM],IC50 [3] [nM],other results
B1,–,–,IC50 [1]: 17 nM
B2,1.6,4,–
B3,–,–,IC50 [1]: 74 nM
B4,–,–,IC50 [4]: 4.3 nM; IC50 [5]: 21 nM
B5,–,–,IC50 [6]: 1900 nM
B6,4600,6000,–
B7,–,–,IC50 [7]: 900 nM
B8,42,70,–
